# Test results reported in US20260167737A1 (BIGHAT BIOSCIENCES, published 2026).
# T1: CDH17 (UniProt Q12864 23-787, limits assumed)
# T1 construct: also called cadherin 17
# T1 sequence (looked up): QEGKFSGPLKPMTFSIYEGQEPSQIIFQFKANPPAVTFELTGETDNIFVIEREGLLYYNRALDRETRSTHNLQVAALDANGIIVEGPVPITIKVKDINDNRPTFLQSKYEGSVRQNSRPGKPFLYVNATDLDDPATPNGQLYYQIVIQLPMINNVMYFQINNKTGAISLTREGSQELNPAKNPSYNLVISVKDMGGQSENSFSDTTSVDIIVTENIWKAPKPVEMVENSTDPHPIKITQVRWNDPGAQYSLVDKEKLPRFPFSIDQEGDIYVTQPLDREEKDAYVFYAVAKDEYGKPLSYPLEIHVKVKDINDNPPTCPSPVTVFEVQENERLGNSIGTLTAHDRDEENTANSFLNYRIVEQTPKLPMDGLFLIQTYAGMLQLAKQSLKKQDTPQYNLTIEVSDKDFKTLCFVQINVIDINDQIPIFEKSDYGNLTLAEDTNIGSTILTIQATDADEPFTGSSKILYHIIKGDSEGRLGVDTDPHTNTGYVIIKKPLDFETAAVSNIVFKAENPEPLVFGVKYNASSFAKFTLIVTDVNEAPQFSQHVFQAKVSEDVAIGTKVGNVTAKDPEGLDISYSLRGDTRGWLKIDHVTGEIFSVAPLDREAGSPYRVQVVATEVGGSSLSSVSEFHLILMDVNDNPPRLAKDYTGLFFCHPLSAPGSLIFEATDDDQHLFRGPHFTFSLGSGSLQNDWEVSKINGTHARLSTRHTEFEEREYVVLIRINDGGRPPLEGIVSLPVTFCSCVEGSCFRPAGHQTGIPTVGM
# Molecular target: T1, CDH17
# Assay: method not stated; KD at pH 7.4
row,Kd [nM],Binder
1,27.2,"CDH17_vhh_0001 (VHH, also called parental VHH-0001) VHH: QVQLQESGGGLVQPGGSTRLSCVSSRTFSYYDMGWFRQAPGKEREFVALLSWNGENAEYSDSVMGRFTVSRGNTQNSVNLQMNNLKPEDTGIYYCAVTHGGARSVRSWGQGTQVTVSS"
2,3.76,CDH17_vhh_0672 (VHH) VHH: QVQLQESGGGLVQPGGSTRLSCVSSRTFSYYDMGWFRQAPGKEREFVALLSWRGNNAEYSDSVHGRFTVSRGNTQNSVNLQMNNLKPEDTGIYYCAVTYGGARSVRLWGQGTQVTVSS
3,5.01,CDH17_vhh_0587 (VHH) VHH: QVQLQESGGGLVQPGGSTRLSCVSSRTFSYYDMGWFRQAPGKEREFVALLSWRGINAEYSDSVMGRFTVSRGNTQNSVNLQMNNLKPEDTGIYYCAVTYGGARSVRSWGQGTQVTVSS
4,2.18,CDH17_vhh_0648 (VHH) VHH: QVQLQESGGGLVQPGGSTRLSCVSSRTFSYYDMGWFRQAPGKEREFVALLSWRGNNAEYSDSVMGRFVVSRGNTQNSVNLQMNNLKPEDTGIYYCAVTYGVAKSVRSWGQGTQVTVSS
5,3.21,CDH17_vhh_0591 (VHH) VHH: QVQLQESGGGLVQPGGSTRLSCVSSRTFSYYDMGWFRQAPGKEREFVALLSWRGNNAEYSDSVMGRFTVSRGNTQNSVNLQMNNLKPEDTGIYYCAVTYGGARSVRLWGQGTQVTVSS
6,4.85,CDH17_vhh_0372 (VHH) VHH: QVQLQESGGGLVQPGGSTRLSCVSSRTFSYYDMGWFRQAPGKEREFVALLDWRGNNAEYSDSVMGRFTVSRGNTQNSVNLQMNNLKPEDTGIYYCAVTYGGARSVRSWGQGTQVTVSS
7,4.35,CDH17_vhh_0274 (VHH) VHH: QVQLQESGGGLVQPGGSTRLSCVSSRTFSYYDMGWFRQAPGKEREFVALLSWRGNNAEYSDSVMGRFVVSRGNTQNSVNLQMNNLKPEDTGIYYCAVTYGGAKSVRSWGQGTQVTVSS
8,2.82,CDH17_vhh_0271 (VHH) VHH: QVQLQESGGGLVQPGGSTRLSCVSSRTFSYYDMGWFRQAPGKEREFVALLSWRGNNAEYSDSVMGRFVVSRGNTQNSVNLQMNNLKPEDTGIYYCAVTYGVARSVRSWGQGTQVTVSS
9,4.85,CDH17_vhh_0613 (VHH) VHH: QVQLQESGGGLVQPGGSTRLSCVSSRTFSYYDMGWFRQAPGKEREFVALLSWRGENAEYSDSVMGRFTVSRGNTQNSVNLQMNNLKPEDTGIYYCAVTYGGARSVRSWGQGTQVTVSS
10,7.59,CDH17_vhh_0156 (BHB156) (VHH) VHH: QVQLQESGGGLVQPGGSTRLSCVSSRTFSYYDMGWFRQAPGKEREFVALLSWRGNNAEYSDSVMGRFTVSRGNTQNSVNLQMNNLKPEDTGIYYCAVTYGGARSVRSWGQGTQVTVSS
11,2.93,CDH17_vhh_0622 (VHH) VHH: QVQLQESGGGLVQPGGSTRLSCVSSITFSYYDMGWFRQAPGKEREFVALLSWRGENAEYSDSVMGRFTVSRGNTQNSVNLQMNNLKPEDTGIYYCAVTYGGARSVRSWGQGTQVTVSS
12,3.71,CDH17_vhh_0651 (VHH) VHH: QVQLQESGGGLVQPGGSTRLSCVSSRTFSYYDMGWFRQYPGKEREFVALLSWRGNNAEYSDSVMGRFVVSRGNTQNSVNLQMNNLKPEDTGIYYCAVTLGVARSVRSWGQGTQVTVSS
13,3.3,CDH17_vhh_0652 (VHH) VHH: QVQLQESGGGLVQPGGSTRLSCVSSRTFSYYDMGWFRQYPGKEREFVALLSWRGNYAEYSDSVMGRFVVSRGNTQNSVNLQMNNLKPEDTGIYYCAVTYGGARSVRLWGQGTQVTVSS
14,5.47,CDH17_vhh_0395 (VHH) VHH: QVQLQESGGGLVQPGGSTRLSCVSSRTFSYYDMGWFRQAPGKEREFVALLSWRGNNAEYSESVMGRFTVSRGNTQNSVNLQMNNLKPEDTGIYYCAVTYGGARSVRSWGQGTQVTVSS
15,4.94,CDH17_vhh_0173 (VHH) VHH: QVQLQESGGGLVQPGGSTRLSCVSSRTFSYYDMGWFRQAPGKEREFVALLSWRGNNAEYRDSVMGRFTVSRGNTQNSVNLQMNNLKPEDTGIYYCAVTYGGARSVRSWGQGTQVTVSS
16,4.96,CDH17_vhh_0629 (VHH) VHH: QVQLQESGGGLVQPGGSTRLSCVSSRTFSYYDMGWFRQAPGKEREFVALLDWRGENAEYSDSVMGRFTVSRGNTQNSVNLQMNNLKPEDTGIYYCAVTYGGARSVRSWGQGTQVTVSS

row,Kd [nM],Binder
1,2.45,CDH17_vhh_0650 (VHH) VHH: QVQLQESGGGLVQPGGSTRLSCVSSRTFSYYDMGWFRQAPGKEREFVALLSWRGNNAEYRDSVMGRFTVSRGNTQNSVNLQMNNLKPEDTGIYYCAVTYGGAKSVRLWGQGTQVTVSS
2,4.36,CDH17_vhh_0676 (VHH) VHH: QVQLQESGGGLVQPGGSTRLSCVSSRTFSYYDMGWFRQAPGKEREFVALLSWRGNNAEYSDDVMGRFTVSRGNTQNSVNLQMNNLKPEDTGIYYCAVTYGTARSVRSWGQGTQVTVSS
3,3.94,CDH17_vhh_0263 (VHH) VHH: QVQLQESGGGLVQPGGSTRLSCVSSRTFSYYDMGWFRQAPGKEREFVALLSWRGNYAEYSDSVMGRFVVSRGNTQNSVNLQMNNLKPEDTGIYYCAVTYGGARSVRSWGQGTQVTVSS
4,4.9,CDH17_vhh_0632 (VHH) VHH: QVQLQESGGGLVQPGGSTRLSCVSSRTFSYYDMGWFRQAPGKEREFVALLSWRGERAEYSDSVMGRFTVSRGNTQNSVNLQMNNLKPEDTGIYYCAVTYGGARSVRSWGQGTQVTVSS
5,3.32,CDH17_vhh_0644 (VHH) VHH: QVQLQESGGGLVQPGGSTRLSCVSSRTFSYYDMGWFRQAPGKEREFVALLSWRGNNAEYRDSVMGRFVVSRGNTQNSVNLQMNNLKPEDTGIYYCAVTYGVARSVRSWGQGTQVTVSS
6,2.63,CDH17_vhh_0646 (VHH) VHH: QVQLQESGGGLVQPGGSTRLSCVSSRTFSYYDMGWFRQAPGKEREFVALLSWRGNNAEYRDSVMGRFTVSRGNTQNSVNLQMNNLKPEDTGIYYCAVTYGGARSVRLWGQGTQVTVSS
7,4.53,CDH17_vhh_0670 (VHH) VHH: QVQLQESGGGLVQPGGSTRLSCVSSRTFSYYDMGWFRQAPGKEREFVALLDWRGNYAEYSDSVMGRFTVSRGNTQNSVNLQMNNLKPEDTGIYYCAVTYGGARSVRSWGQGTQVTVSS
8,3.12,CDH17_vhh_0653 (VHH) VHH: QVQLQESGGGLVQPGGSTRLSCVSSRTFSYYDMGWFRQAPGKEREFVALLSWRGINAEYSDTVMGRFVVSRGNTQNSVNLQMNNLKPEDTGIYYCAVTYGVARSVRSWGQGTQVTVSS
9,3.79,CDH17_vhh_0674 (VHH) VHH: QVQLQESGGGLVQPGGSTRLSCVSSRTFSYYDMGWFRQAPGKEREFVALLSWRGNNAEYSDTVMGRFTVSRGNTQNSVNLQMNNLKPEDTGIYYCAVTYGGARSVRKWGQGTQVTVSS
10,5.17,CDH17_vhh_0645 (VHH) VHH: QVQLQESGGGLVQPGGSTRLSCVSSRTFSYYDMGWFRQYPGKEREFVALLSWRGNYAEYSDSVMGRFVVSRGNTQNSVNLQMNNLKPEDTGIYYCAVTYGGARSVRSWGQGTQVTVSS
11,3.89,CDH17_vhh_0675 (VHH) VHH: QVQLQESGGGLVQPGGSTRLSCVSSRTFSYYDMGWFRQAPGKEREFVALLSWRGNNAEYSDTVMGRFTVSRGNTQNSVNLQMNNLKPEDTGIYYCAVTYGGARSVRAWGQGTQVTVSS
12,5.08,CDH17_vhh_0267 (VHH) VHH: QVQLQESGGGLVQPGGSTRLSCVSSRTFSYYDMGWFRYAPGKEREFVALLSWRGNNAEYADSVMGRFTVSRGNTQNSVNLQMNNLKPEDTGIYYCAVTYGGARSVRSWGQGTQVTVSS
13,5.14,CDH17_vhh_0262 (VHH) VHH: QVQLQESGGGLVQPGGSTRLSCVSSRTFSYYDMGWFRQAPGKEREFVALLSWRGNNAEYSDTVMGRFTVSRGNTQNSVNLQMNNLKPEDTGIYYCAVTYGGARSVRSWGQGTQVTVSS
14,4.75,CDH17_vhh_0259 (VHH) VHH: QVQLQESGGGLVQPGGSTRLSCVSSRTFSYYDMGWFRQYPGKEREFVALLSWRGNNAEYSDSVMGRFTVSRGNTQNSVNLQMNNLKPEDTGIYYCAVTYGGARSVRSWGQGTQVTVSS
15,2.65,CDH17_vhh_0677 (VHH) VHH: QVQLQESGGGLVQPGGSTRLSCVSSRTFSYYDMGWFRQAPGKEREFVALLSWRGNNAEYSDDVMGRFTVSRGNTQNSVNLQMNNLKPEDTGIYYCAVTYGKARSVRSWGQGTQVTVSS
